Publication PMC8488656

biological target: colicin E7 (ColE7) (UniProt Q47112); assay: ELISA
UniProt Q47112, sequence (Q47112 whole entry): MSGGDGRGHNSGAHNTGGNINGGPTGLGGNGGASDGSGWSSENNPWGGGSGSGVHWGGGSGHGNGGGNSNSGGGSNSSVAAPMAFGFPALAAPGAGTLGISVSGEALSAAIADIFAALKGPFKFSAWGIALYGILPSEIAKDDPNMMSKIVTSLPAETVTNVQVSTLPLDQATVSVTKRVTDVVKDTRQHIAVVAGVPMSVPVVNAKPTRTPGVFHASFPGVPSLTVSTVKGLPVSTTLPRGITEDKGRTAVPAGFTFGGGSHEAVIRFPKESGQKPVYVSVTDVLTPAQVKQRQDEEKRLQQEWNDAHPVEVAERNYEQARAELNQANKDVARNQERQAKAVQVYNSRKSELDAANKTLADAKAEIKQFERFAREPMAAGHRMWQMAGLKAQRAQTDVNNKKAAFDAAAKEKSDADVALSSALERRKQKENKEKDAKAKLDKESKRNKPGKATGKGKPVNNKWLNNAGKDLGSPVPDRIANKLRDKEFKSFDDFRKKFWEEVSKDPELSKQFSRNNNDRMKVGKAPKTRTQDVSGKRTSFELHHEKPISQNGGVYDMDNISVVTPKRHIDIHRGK

For “YebF-Im7^N30, glycosylated (from UniProt Q03708 1-87) (natural protein)”, which agly/ai (binding activity, glycosylated over aglycosylated variant) is on record?
Its agly/ai (binding activity, glycosylated over aglycosylated variant) is 1.36.

How did the agly/ai (binding activity, glycosylated over aglycosylated variant) turn out when “YebF-Im7^N31, glycosylated (from UniProt Q03708 1-87) (natural protein)” was run?
The agly/ai (binding activity, glycosylated over aglycosylated variant) was 0.55.

Which agly/ai (binding activity, glycosylated over aglycosylated variant) does the source give for “YebF-Im7^N49, glycosylated (from UniProt Q03708 1-87) (natural protein)” here?
Its agly/ai (binding activity, glycosylated over aglycosylated variant) is 1.91.

How did the agly/ai (binding activity, glycosylated over aglycosylated variant) turn out when “YebF-Im7^N58, glycosylated (from UniProt Q03708 1-87) (natural protein)” was run?
Its agly/ai (binding activity, glycosylated over aglycosylated variant) is 3.44.
